System: GST-NR2F6 fusion protein, full-length, wild-type
Sequence (chain, as listed by the source): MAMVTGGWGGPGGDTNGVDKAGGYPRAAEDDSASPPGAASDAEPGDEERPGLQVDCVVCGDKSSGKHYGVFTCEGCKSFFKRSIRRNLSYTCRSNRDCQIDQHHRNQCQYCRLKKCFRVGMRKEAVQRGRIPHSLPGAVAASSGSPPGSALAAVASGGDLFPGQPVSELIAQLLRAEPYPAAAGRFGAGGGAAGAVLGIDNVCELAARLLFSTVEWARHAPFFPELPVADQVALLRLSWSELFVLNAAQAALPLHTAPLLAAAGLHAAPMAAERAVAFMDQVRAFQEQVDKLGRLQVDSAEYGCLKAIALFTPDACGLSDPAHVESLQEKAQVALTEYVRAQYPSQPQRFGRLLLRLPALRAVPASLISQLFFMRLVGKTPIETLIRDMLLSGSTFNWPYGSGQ

B1: recombinant PKCzeta (enzyme, UniProt Q05513 1-592, looked up, species assumed)
Protein kinase C zeta type: MPSRTGPKMEGSGGRVRLKAHYGGDIFITSVDAATTFEELCEEVRDMCRLHQQHPLTLKWVDSEGDPCTVSSQMELEEAFRLARQCRDEGLIIHVFPSTPEQPGLPCPGEDKSIYRRGARRWRKLYRANGHLFQAKRFNRRAYCGQCSERIWGLARQGYRCINCKLLVHKRCHGLVPLTCRKHMDSVMPSQEPPVDDKNEDADLPSEETDGIAYISSSRKHDSIKDDSEDLKPVIDGMDGIKISQGLGLQDFDLIRVIGRGSYAKVLLVRLKKNDQIYAMKVVKKELVHDDEDIDWVQTEKHVFEQASSNPFLVGLHSCFQTTSRLFLVIEYVNGGDLMFHMQRQRKLPEEHARFYAAEICIALNFLHERGIIYRDLKLDNVLLDADGHIKLTDYGMCKEGLGPGDTTSTFCGTPNYIAPEILRGEEYGFSVDWWALGVLMFEMMAGRSPFDIITDNPDMNTEDYLFQVILEKPIRIPRFLSVKASHVLKGFLNKDPKERLGCRPQTGFSDIKSHAFFRSIDWDLLEKKQALPPFQPQITDDYGLDNFDTQFTSEPVQLTPDDEDAIKRIDQSEFEGFEYINPLLLSTEESV
For B1, the “phosphorylation (32P incorporation), in vitro protein kinase assay” value was “(but not PKCzeta or PKA)”.
